Experiment [1] deals with 沙眼衣原体培养物(购自菲鹏生物) (Chlamydia trachomatis). The experiment in a line: indirect ELISA, plate coated with C. trachomatis culture diluted 100x; antibody at 2.5 ng/ml. On the technique in general: In an ELISA, binding on a coated surface is turned into a signal by an enzyme label.
Experiment [2] shares this target. The experiment can be described thus: indirect ELISA, plate coated with C. trachomatis culture diluted 100x; antibody at 20 ng/ml.
For experiment [3] the target is unchanged. The experiment in a line: indirect ELISA, plate coated with C. trachomatis culture diluted 100x; antibody at 0 ng/ml (blank).
Experiment [4] has the same target. The experiment in a line: indirect ELISA, plate coated with C. trachomatis culture diluted 100x; antibody at 40 ng/ml.
Experiment [5] shares this target. The experiment in a line: indirect ELISA, plate coated with C. trachomatis culture diluted 100x; antibody at 10 ng/ml.
Experiment [6] has the same target. The experiment in a line: indirect ELISA, plate coated with C. trachomatis culture diluted 100x; antibody at 5 ng/ml.

On to 对照 (antibody), for which the OD (450nm, 参考630nm) in experiment [1] is 0.291 OD; in experiment [2], 1.2 OD; in experiment [3], 0.025 OD; in experiment [4] it was 1.79 OD; in experiment [5] it was 0.825 OD; in experiment [6], 0.503 OD.

B1: Anti-CT-4B11mut2单克隆抗体 (antibody, part only; not given: light chain, part only)
heavy: QVQVRQSGPGLVQPSQSLSITCTVSGFSLRSHGVNWVRQSPRKGLEWLGVIWKGGSTEYSAAFMSRLSISKDNSKNQIFFKMNSLQADDTAIYYCAKNNDYGRFDYWGQGTLVTVSAAKTTAPSVYPLAPVCGDTTGSSVTLGCLVKGYFPEPVTLTWNSGSLSSGVHTFPAVLQSDLYTLSSSVTVTSSTWPSQSITCNVAHPASSTKVDKKIEPRGPTIKPCPPCKCPAPNLLGGPSVFIFPPKIKDVLMISLSPIVTCVVVDVSEDDPDVQISWFVNNVEVHTAQTQTHREDYNSTLRVVSALPIQHQDWMSGKEFKCKVNNKDLPAPIERTISKPKGSVRAPQVYVLPPPEEEMTKKQVTLTCMVTDFMPEDIYVEWTNNGKTELNYKNTEPVLDSDGSYFMYSKLRVEKKNWVERNSYSCSVVHEGLHNHHTTKSFSRTPGK
Turning to B1, the OD (450nm, 参考630nm) in experiment [1] was determined as 0.507 OD; in experiment [2], 1.71 OD; in experiment [3], 0.026 OD; in experiment [4], 1.92 OD; in experiment [5], 1.33 OD; in experiment [6], 0.959 OD.

B2: Anti-CT-4B11mut1单克隆抗体 (antibody, mouse IgG2a, kappa, V domains shown)
VH: QVQVRQSGPGLVQPSQSLSITCTVSGFSLRSHGVNWVRQSPRKGLEWLGVIWKGGSTEYSAAFMSRLSISKDNSKNQIFFKMNSLQADDTAIYYCAKNNDYGRFDYWGQGTLVTVSA
VL: EVVLTQSPTTLAASPGETITITCRVSSSISSSYLHWYQQKPGFSPKLLIYRTSNLASGVPARFSGSGSGTSYSLTIGTMEADDVATYYCQQGSSLPRTFGGGTTLEIKR
For B2, the OD (450nm, 参考630nm) in experiment [1] worked out at 0.462 OD; in experiment [2], 1.65 OD; in experiment [3], 0.043 OD; in experiment [4], 1.9 OD; in experiment [5] it was 1.14 OD; in experiment [6] it was 0.811 OD.

These data come from patent CN116854812A.
